Target: HA-PEG10 gag-pol (Homo sapiens) (UniProt Q86TG7)
Experiment: co-sedimentation; crude VLP preparation: conditioned medium of co-transfected HEK293 cells, cleared at 2700 x g, ultracentrifuged at 134,000 x g for 4 hr at 4°C over a 30% sucrose cushion; pellet analysed by western blot

Sequence of UniProt Q86TG7 (Q86TG7 whole entry): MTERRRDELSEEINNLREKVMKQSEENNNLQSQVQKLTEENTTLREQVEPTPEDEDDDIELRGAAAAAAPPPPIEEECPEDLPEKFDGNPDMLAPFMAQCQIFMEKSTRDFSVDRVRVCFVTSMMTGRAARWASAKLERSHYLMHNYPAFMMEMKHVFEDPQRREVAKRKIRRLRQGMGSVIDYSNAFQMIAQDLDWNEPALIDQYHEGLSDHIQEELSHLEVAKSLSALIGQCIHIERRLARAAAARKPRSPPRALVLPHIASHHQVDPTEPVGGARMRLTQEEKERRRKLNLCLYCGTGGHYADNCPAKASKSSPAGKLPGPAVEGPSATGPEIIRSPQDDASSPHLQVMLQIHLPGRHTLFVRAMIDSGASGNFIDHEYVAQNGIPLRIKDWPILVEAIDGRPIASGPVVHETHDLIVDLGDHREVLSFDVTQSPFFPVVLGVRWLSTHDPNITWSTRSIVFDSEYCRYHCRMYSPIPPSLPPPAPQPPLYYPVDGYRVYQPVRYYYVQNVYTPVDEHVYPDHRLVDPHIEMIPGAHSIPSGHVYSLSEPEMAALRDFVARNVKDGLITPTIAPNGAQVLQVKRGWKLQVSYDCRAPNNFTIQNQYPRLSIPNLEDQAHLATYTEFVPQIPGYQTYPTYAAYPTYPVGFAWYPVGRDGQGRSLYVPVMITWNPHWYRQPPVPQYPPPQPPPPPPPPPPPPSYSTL

- abundance of RTL8 relative to HA-PEG10 in the VLP fraction: 5%
Substance: HA-HsRTL8c (from UniProt A6ZKI3 1-113) (natural protein)
